This note sets out measurements from patent US20230025572A1 (published 2023).

The target in assay [1] is T1, MAGE-B5 peptide on HLA-A*02:01 (human).
T1 peptide: KVLEYLAKV
Kind of assay: cytokine release. The method, then: (§1) FIG. 18 T2 cells were loaded with 10-5 mol/l MAGE-A1278 (SEQ ID NO: 11) or the 2 most similar epitopes in the human proteome (MAGE-B16 and MAGE-B5, SEQ ID NOs: 54 and 55, respectively) differing in only 2 amino acids from MAGE-A1278 and co-cultured with TCR modified T cells. Functional response was assessed based on IFNγ production.

The target in assay [2] is T2, MAGE-B16 peptide on HLA-A*02:01 (human).
T2 peptide: KVLEFVAKV
Kind of assay: cytokine release. The protocol:
as §1

Assay [3] has as its target T3, MAGE-A1 peptide on HLA-A*02:01 (human).
T3 peptide: KVLEYVIKV
Kind of assay: multimer staining.

B1: TCR 1367 (TCR, V domains shown)
Valpha: GEDVEQSLFLSVREGDSSVINCTYTDSSSTYLYWYKQEPGAGLQLLTYIFSNMDMKQDQRLTVLLNKKDKHLSLRIADTQTGDSAIYFCAESIGSNSGYALNFGKGTSLLVTP
Vbeta: DVKVTQSSRYLVKRTGEKVFLECVQDMDHENMFWYRQDPGLGLRLIYFSYDVKMKEKGDIPEGYSVSREKKERFSLILESASTNQTSMYLCASRGLAGYEQYFGPGTRLTVT
On to B1, for which the values for the binding result in assay [1], in assay [2] and in assay [3] were “no recognition”, “no recognition” and “recognises”, respectively.

B2: TCR 1405 (TCR, V domains shown)
Valpha: GENVEQHPSTLSVQEGDSAVIKCTYSDSASNYFPWYKQELGKGPQLIIDIRSNVGEKKDQRIAVTLNKTAKHFSLHITETQPEDSAVYFCAARPNSGNTPLVFGKGTRLSVIA
Vbeta: SAVISQKPSRDICQRGTSLTIQCQVDSQVTMMFWYRQQPGQSLTLIATANQGSEATYESGFVIDKFPISRPNLTFSTLTVSNMSPEDSSIYLCSVEQDTNTGELFFGEGSRLTVL
B2: the figures for the binding result in assay [1], in assay [2] and in assay [3] were “no recognition”, “no recognition” and “recognises”, respectively.

B3: TCR 1705 (TCR, V domains shown)
Valpha: QKEVEQDPGPLSVPEGAIVSLNCTYSNSAFQYFMWYRQYSRKGPELLMYTYSSGNKEDGRFTAQVDKSSKYISLFIRDSQPSDSATYLCAMSDTGNQFYFGTGTSLTVIP
Vbeta: AAGVIQSPRHLIKEKRETATLKCYPIPRHDTVYWYQQGPGQDPQFLISFYEKMQSDKGSIPDRFSAQQFSDYHSELNMSSLELGDSALYFCASSFRGGGANVLTFGAGSRLTVL
As to B3, the binding result is “no recognition” in assay [1], “no recognition” in assay [2] and “recognises” in assay [3].
